Measurements from US20220125891A1 (OSAKA UNIVERSITY, published 2022).
Changes are numbered by the printed parent chain. Where two headings read alike, the source gives them in different places. Positions of bridges follow the written chain, without caps; N, C: chain ends. Non-standard residues stand in square brackets, D forms with d. No end group written: not given here. NMeA = CN[C@@H](C)C(=O)O; dNMeA = CN[C@H](C)C(=O)O

T1: full-length human Regnase-1 with a FLAG tag on the N-terminal side and a biotin ligase BirA recognition … (human, UniProt Q5D1E8 1-599, biotinylated where required ; Biotinylated at the BirA recognition sequence where required. That sequence is not in the letters.)
T1 sequence: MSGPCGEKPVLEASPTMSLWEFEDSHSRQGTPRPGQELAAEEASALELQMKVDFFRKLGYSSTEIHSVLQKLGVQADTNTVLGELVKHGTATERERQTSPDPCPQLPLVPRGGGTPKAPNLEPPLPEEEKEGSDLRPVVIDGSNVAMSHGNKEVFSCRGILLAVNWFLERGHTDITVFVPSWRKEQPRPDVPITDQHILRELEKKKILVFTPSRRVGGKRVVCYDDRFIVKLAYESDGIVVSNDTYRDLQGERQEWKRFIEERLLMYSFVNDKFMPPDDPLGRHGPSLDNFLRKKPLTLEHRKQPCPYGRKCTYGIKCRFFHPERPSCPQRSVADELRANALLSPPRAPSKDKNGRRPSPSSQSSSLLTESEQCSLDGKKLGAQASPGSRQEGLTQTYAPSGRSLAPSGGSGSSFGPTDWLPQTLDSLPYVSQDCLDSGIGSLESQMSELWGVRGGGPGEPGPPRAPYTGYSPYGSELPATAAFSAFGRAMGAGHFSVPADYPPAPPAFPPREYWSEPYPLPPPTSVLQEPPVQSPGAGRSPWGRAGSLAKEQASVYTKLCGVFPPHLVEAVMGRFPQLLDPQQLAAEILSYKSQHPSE

T2: Reg1_301-599 (human Regnase-1 amino acids 301 to 599, FLAG tag on the N-terminal side, BirA recognition … (human))
T2 sequence (Q5D1E8 301-599, looked up): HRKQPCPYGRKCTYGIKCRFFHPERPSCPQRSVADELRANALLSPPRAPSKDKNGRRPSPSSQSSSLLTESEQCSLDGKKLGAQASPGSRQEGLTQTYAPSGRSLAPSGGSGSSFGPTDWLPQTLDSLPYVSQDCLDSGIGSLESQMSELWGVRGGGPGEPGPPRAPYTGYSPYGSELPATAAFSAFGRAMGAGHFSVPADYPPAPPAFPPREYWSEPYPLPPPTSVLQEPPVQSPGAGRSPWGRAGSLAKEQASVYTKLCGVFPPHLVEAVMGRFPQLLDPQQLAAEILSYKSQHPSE

B1: REB0007 (antibody, V domains shown)
VH: QEQLEESGGDLVKPEGSLTLTCTASGFSFNSRYWICWVRQAPGKGLEWIGCIVSGDSNTYYASWAKGRFTISKTSSTTVTLQMTSLTAADTATYFCARWYTSSRPGLWGPGTLVTVSS
VL: DVVMTQTPASVSEPVGGTVTIKCQASQSISSYLSWYQQKPGQPPKLLIYSATNLASGVSSRFKGSRFGTEFTLTISDLECDDAATYYCQCSYYVSGFAFGGGTEVVVKG
notes: Rabbit antibody gene expressed in HEK293 cells, purified by Protein A; also called anti-Regnase-1 antibody; anti-non-phosphorylated Regnase-1 peptide antibody
B2: REB0014 (antibody, V domains shown)
VH: QSLEESGGGLVKPGGTLTLTCKASGIDFSSYYYMCWVRQAPGKGLEWIACIYSGDGSSYYVSWANGRFTISKTSSATVTLQMTSLTAADTATYFCARDLGNLWGPGTLVTVSS
VL: QVLTQTPASVSAAVGGTVTINCQASQSVYKNSGLSWFQQKPGQSPKRLIYSASTLDSGVPSRFKGSGSGTQFTLTISDVQCDDAATYYCLGIYVCSSVDCGAFGGGTEVVVKG
notes: as for B1
B3: REB0022 (antibody, V domains shown)
VH: QEQLEESGGDLVKPEGSLTLTCTASGGSFSSRYWMCWVRQAPGKGLEWIACIVIGDRNNYYASWAKGRFTISKTSSTTVTLQMTSLTAADTATYFCARWHSSTAPSLWGPGTLVTVSS
VL: B1 VL with K22N, S50K, T52S, N53T, R66G, F67S, D81A, A98V
notes: as for B1

Legend:
[1] = molecular target: T3, ΔCTD_Reg1 (human Regnase-1 amino acids 1 to 546, FLAG tag on the N-terminal side, BirA recognition sequence … (human)); experiment: cell-based or functional assay
[2] = molecular target: T1, full-length human Regnase-1 with a FLAG …; experiment: cell-based or functional assay
[3] = molecular target: T2, Reg1_301-599 (human Regnase-1 amino …); experiment: cell-based or functional assay
[4] = molecular target: T1, full-length human Regnase-1 with a FLAG …; experiment: AlphaScreen, blocks TBK1 binding to FL_Reg1
[5] = molecular target: T1, full-length human Regnase-1 with a FLAG …; experiment: AlphaScreen, blocks TBK1 binding to FL_Reg1; remark: listed apart in the source
[6] = molecular target: T1, full-length human Regnase-1 with a FLAG …; experiment: AlphaScreen, blocks IKKβ binding to FL_Reg1
[7] = molecular target: T3, ΔCTD_Reg1 (human Regnase-1 amino acids …); experiment: cell-based or functional assay; remark: listed apart in the source
[8] = molecular target: T1, full-length human Regnase-1 with a FLAG …; experiment: cell-based or functional assay; remark: listed apart in the source
[9] = molecular target: T2, Reg1_301-599 (human Regnase-1 amino …); experiment: cell-based or functional assay; remark: listed apart in the source
[10] = molecular target: T3, ΔCTD_Reg1 (human Regnase-1 amino acids …); experiment: cell-based or functional assay; remark: listed apart in the source
[11] = molecular target: T1, full-length human Regnase-1 with a FLAG …; experiment: cell-based or functional assay; remark: listed apart in the source
[12] = molecular target: T1, full-length human Regnase-1 with a FLAG …; experiment: AlphaScreen, blocks IKKβ binding to FL_Reg1; remark: listed apart in the source
[13] = molecular target: T1, full-length human Regnase-1 with a FLAG …; experiment: affinity selection-MS (SEC, LC/MS), 1 µM each
[14] = molecular target: T1, full-length human Regnase-1 with a FLAG …; experiment: flow cytometry of antigen-coated streptavidin beads

| Binder | IC50, phosphorylation by IKKβ [1] | IC50, phosphorylation by IKKβ [2] | IC50, phosphorylation by IKKβ [3] | IC50 [4] | IC50 [5] | IC50 [6] | IC50, phosphorylation by TBK1 [7] | IC50, phosphorylation by TBK1 [8] | IC50, phosphorylation by TBK1 [9] | IC50, phosphorylation by IKKβ [10] | IC50, phosphorylation by TBK1 [10] | IC50, phosphorylation by IKKβ [11] | IC50, phosphorylation by TBK1 [11] | IC50 [12] | AS-MS ratio(%) [13] | binding result [14] |
| --- | --- | --- | --- | --- | --- | --- | --- | --- | --- | --- | --- | --- | --- | --- | --- | --- |
| [NMeA]GYANSWYNIWD (lactam N-12) [PP2] | 14 µM | 16.6 µM | 18.5 µM | 15.5 µM | 15.5 µM | 35.8 µM | 17.6 µM | 21.7 µM | 22.4 µM | 14 µM | 17.6 µM | 16.6 µM | 21.7 µM | 35.8 µM | 14.2% | – |
| [NMeA]TSWYKVNWGQD (lactam N-12) [PP1] | > 62.1 µM | 28.1 µM | > 62.1 µM | > 62.1 µM | > 62.1 µM | > 62.1 µM | > 62.1 µM | 54.5 µM | > 62.1 µM | > 62.1 µM | > 62.1 µM | 28.1 µM | 54.5 µM | > 62.1 µM | 21.8% | – |
| [dNMeA]KHASAWYRIWD (lactam N-12) [PP3] | 8.3 µM | 4.6 µM | 6.8 µM | 3.1 µM | 3.1 µM | 8.3 µM | 5.7 µM | 3.9 µM | 7.1 µM | 8.3 µM | 5.7 µM | 4.6 µM | 3.9 µM | 8.3 µM | 1.2% | – |
| [NMeA]YIWDFFGDLD (lactam N-11) [PP4] | 8.3 µM | 19.5 µM | 12.8 µM | 24.4 µM | 24.4 µM | 47.7 µM | 44.9 µM | 61.9 µM | 35.9 µM | 8.3 µM | 44.9 µM | 19.5 µM | 61.9 µM | 47.7 µM | 37.5% | – |
| [NMeA]HSNAWYNIWD (lactam N-11) [PP5] | 20.4 µM | 23.6 µM | 31.3 µM | 11.5 µM | 11.5 µM | 24 µM | 19.1 µM | 24.2 µM | 40.4 µM | 20.4 µM | 19.1 µM | 23.6 µM | 24.2 µM | 24 µM | 20.8% | – |
| [dNMeA]PNSSWFKIWD (lactam N-11) [PP6] | 20.3 µM | 17 µM | 17.5 µM | 19.2 µM | 19.2 µM | 42.1 µM | 14.5 µM | 13.1 µM | 16.8 µM | 20.3 µM | 14.5 µM | 17 µM | 13.1 µM | 42.1 µM | 6.4% | – |
| [NMeA]NSWYRIWGLD (lactam N-11) [PP22] | 34 µM | 15 µM | 31 µM | – | 11.4 µM | – | 22.8 µM | 24.3 µM | 25.8 µM | – | – | – | – | 26.8 µM | 14.5% | – |
| [dNMeA]PTSSWYKIWD (lactam N-11) [PP23] | > 62.1 µM | 25.6 µM | > 62.1 µM | – | 9.2 µM | – | 29.7 µM | 18.8 µM | 30.7 µM | – | – | – | – | 41.3 µM | 28.6% | – |
| B1 | – | – | – | – | – | – | – | – | – | – | – | – | – | – | – | binds |
| B2 | – | – | – | – | – | – | – | – | – | – | – | – | – | – | – | binds |
| B3 | – | – | – | – | – | – | – | – | – | – | – | – | – | – | – | binds |
